# Source: patent US20240132578A1
# Assays:
# Assay in all cases: cell-based or functional assay
# [1] = biological target: HIV-1 Env of isolate MGRM-G-027 (subtype G), on pseudovirus (HIV-1)
# [2] = biological target: HIV-1 Env of isolate MGRM-C-008 (subtype C) (HIV-1)
# [3] = biological target: HIV-1 Env of isolate MGRM-G-016 (subtype G), on pseudovirus (HIV-1)
# [4] = biological target: HIV-1 Env of isolate MGRM-C-015 (subtype C) (HIV-1)
# [5] = biological target: HIV-1 Env of isolate MGRM-G-004 (subtype G), on pseudovirus (HIV-1)
# [6] = biological target: HIV-1 Env of isolate MGRM-C-009 (subtype C) (HIV-1)
# [7] = biological target: HIV-1 Env of isolate MGRM-C-012 (subtype C) (HIV-1)
# [8] = biological target: aMLV envelope, on pseudovirus (negative control)
# [9] = biological target: HIV-1 Env of isolate MGRM-C-026 (subtype C) (HIV-1)
# [10] = biological target: HIV-1 Env of isolate MGRM-G-006 (subtype G), on pseudovirus (HIV-1)
# [11] = biological target: HIV-1 Env of isolate MGRM-C-002 (subtype C) (HIV-1)
# [12] = biological target: HIV-1 Env of isolate MGRM-C-006 (subtype C) (HIV-1)
# [13] = biological target: HIV-1 Env of isolate 97ZA012 (subtype C) (HIV-1)
# [14] = biological target: HIV-1 Env of isolate MGRM-C-005 (subtype C) (HIV-1)
# [15] = biological target: HIV-1 Env of isolate MGRM-C-017 (subtype C) (HIV-1)
# [16] = biological target: HIV-1 Env of isolate MGRM-C-025 (subtype C) (HIV-1)
# [17] = biological target: HIV-1 Env of isolate MGRM-G-017 (subtype G), on pseudovirus (HIV-1)
# [18] = biological target: HIV-1 Env of isolate 93MW959 (subtype C) (HIV-1)
# [19] = biological target: HIV-1 Env of isolate MGRM-C-028 (subtype C) (HIV-1)
# [20] = biological target: HIV-1 Env of isolate MGRM-C-013 (subtype C) (HIV-1)
# [21] = biological target: HIV-1 Env of isolate MGRM-C-004 (subtype C) (HIV-1)
# [22] = biological target: HIV-1 Env of isolate MGRM-G-001 (subtype G), on pseudovirus (HIV-1)
# [23] = biological target: HIV-1 Env of isolate MGRM-G-013 (subtype G), on pseudovirus (HIV-1)
# [24] = biological target: HIV-1 Env of isolate MGRM-C-001 (subtype C) (HIV-1)
# [25] = biological target: HIV-1 Env of isolate MGRM-C-020 (subtype C) (HIV-1)
# [26] = biological target: HIV-1 Env of isolate MGRM-C-024 (subtype C) (HIV-1)
# [27] = biological target: HIV-1 Env of isolate MGRM-G-019 (subtype G), on pseudovirus (HIV-1)
# [28] = biological target: HIV-1 Env of isolate MGRM-C-007 (subtype C) (HIV-1)
# [29] = biological target: HIV-1 Env of isolate MGRM-C-014 (subtype C) (HIV-1)
# [30] = biological target: HIV-1 Env of isolate MGRM-C-027 (subtype C) (HIV-1)
# [31] = biological target: HIV-1 Env of isolate MGRM-G-015 (subtype G), on pseudovirus (HIV-1)
# [32] = biological target: HIV-1 Env of isolate MGRM-C-019 (subtype C) (HIV-1)
# [33] = biological target: HIV-1 Env of isolate MGRM-C-022 (subtype C) (HIV-1)
# [34] = biological target: HIV-1 Env of isolate MGRM-G-009 (subtype G), on pseudovirus (HIV-1)
# [35] = biological target: HIV-1 Env of isolate MGRM-C-023 (subtype C) (HIV-1)
# [36] = biological target: HIV-1 Env of isolate MGRM-G-025 (subtype G), on pseudovirus (HIV-1)
# [37] = biological target: HIV-1 Env of isolate MGRM-G-024 (subtype G), on pseudovirus (HIV-1)
# [38] = biological target: HIV-1 Env of isolate 98IN022 (subtype C) (HIV-1)
# [39] = biological target: HIV-1 Env of isolate MGRM-C-010 (subtype C) (HIV-1)
# [40] = biological target: HIV-1 Env of isolate MGRM-G-014 (subtype G), on pseudovirus (HIV-1)
# [41] = biological target: HIV-1 Env of isolate MGRM-G-028 (subtype G), on pseudovirus (HIV-1)
# [42] = biological target: HIV-1 Env of isolate MGRM-G-011 (subtype G), on pseudovirus (HIV-1)
# [43] = biological target: HIV-1 JR-CSF Env G471A (HIV-1 JR-CSF) (UniProt P20871)
# [44] = biological target: HIV-1 JR-CSF Env D474A (HIV-1 JR-CSF) (UniProt P20871)
substance,measurement,setting,value
PGT-121 (antibody),"IC50 (µg/mL), neutralization of pseudovirus",[1],0.124 µg/mL
same,"IC50 (µg/mL), pseudovirus neutralization",[2],0.012 µg/mL
same,"IC50 (µg/mL), neutralization of pseudovirus",[3],> 50 µg/mL
same,"IC50 (µg/mL), pseudovirus neutralization",[4],25.1 µg/mL
same,"IC50 (µg/mL), neutralization of pseudovirus",[5],0.115 µg/mL
same,"IC50 (µg/mL), pseudovirus neutralization",[6],> 50 µg/mL
same,"IC50 (µg/mL), pseudovirus neutralization",[7],0.123 µg/mL
same,"IC50 (µg/mL), neutralization of pseudovirus",[8],> 50 µg/mL
same,"IC50 (µg/mL), pseudovirus neutralization",[9],0.002 µg/mL
same,"IC50 (µg/mL), neutralization of pseudovirus",[10],> 50 µg/mL
same,"IC50 (µg/mL), pseudovirus neutralization",[11],0.019 µg/mL
same,"IC50 (µg/mL), pseudovirus neutralization",[12],0.017 µg/mL
same,"IC50 (µg/mL), pseudovirus neutralization",[13],0.002 µg/mL
same,"IC50 (µg/mL), pseudovirus neutralization",[14],0.015 µg/mL
same,"IC50 (µg/mL), pseudovirus neutralization",[15],0.009 µg/mL
same,"IC50 (µg/mL), pseudovirus neutralization",[16],46.8 µg/mL
same,"IC50 (µg/mL), neutralization of pseudovirus",[17],0.004 µg/mL
same,"IC50 (µg/mL), pseudovirus neutralization",[18],0.013 µg/mL
same,"IC50 (µg/mL), pseudovirus neutralization",[19],0.472 µg/mL
same,"IC50 (µg/mL), pseudovirus neutralization",[20],7.23 µg/mL
same,"IC50 (µg/mL), pseudovirus neutralization",[21],0.011 µg/mL
same,"IC50 (µg/mL), neutralization of pseudovirus",[22],0.004 µg/mL
same,"IC50 (µg/mL), neutralization of pseudovirus",[23],3.99 µg/mL
same,"IC50 (µg/mL), pseudovirus neutralization",[24],17.5 µg/mL
same,"IC50 (µg/mL), pseudovirus neutralization",[25],> 50 µg/mL
same,"IC50 (µg/mL), pseudovirus neutralization",[26],0.052 µg/mL
same,"IC50 (µg/mL), neutralization of pseudovirus",[27],0.011 µg/mL
same,"IC50 (µg/mL), pseudovirus neutralization",[28],0.196 µg/mL
same,"IC50 (µg/mL), pseudovirus neutralization",[29],26.9 µg/mL
same,"IC50 (µg/mL), pseudovirus neutralization",[30],0.011 µg/mL
same,"IC50 (µg/mL), neutralization of pseudovirus",[31],> 50 µg/mL
same,"IC50 (µg/mL), pseudovirus neutralization",[32],> 50 µg/mL
same,"IC50 (µg/mL), pseudovirus neutralization",[33],0.015 µg/mL
same,"IC50 (µg/mL), neutralization of pseudovirus",[34],0.02 µg/mL
same,"IC50 (µg/mL), pseudovirus neutralization",[35],0.017 µg/mL
same,"IC50 (µg/mL), neutralization of pseudovirus",[36],0.063 µg/mL
same,"IC50 (µg/mL), neutralization of pseudovirus",[37],0.014 µg/mL
same,"IC50 (µg/mL), pseudovirus neutralization",[38],0.007 µg/mL
same,"IC50 (µg/mL), pseudovirus neutralization",[39],> 50 µg/mL
same,"IC50 (µg/mL), neutralization of pseudovirus",[40],0.009 µg/mL
same,"IC50 (µg/mL), neutralization of pseudovirus",[41],0.014 µg/mL
same,"IC50 (µg/mL), neutralization of pseudovirus",[42],3.17 µg/mL
PGT-122 (antibody),"IC50 (µg/mL), neutralization of pseudovirus",[1],0.606 µg/mL
same,"IC50 (µg/mL), pseudovirus neutralization",[2],0.028 µg/mL
same,"IC50 (µg/mL), neutralization of pseudovirus",[3],> 50 µg/mL
same,"IC50 (µg/mL), pseudovirus neutralization",[4],> 50 µg/mL
same,"IC50 (µg/mL), neutralization of pseudovirus",[5],2.15 µg/mL
same,"IC50 (µg/mL), pseudovirus neutralization",[6],> 50 µg/mL
same,"IC50 (µg/mL), pseudovirus neutralization",[7],2 µg/mL
same,"IC50 (µg/mL), neutralization of pseudovirus",[8],> 50 µg/mL
same,Fold IC50 increase relative to wild-type,[43],1.8 fold
same,"IC50 (µg/mL), pseudovirus neutralization",[9],0.006 µg/mL
same,"IC50 (µg/mL), neutralization of pseudovirus",[10],> 50 µg/mL
same,"IC50 (µg/mL), pseudovirus neutralization",[11],0.022 µg/mL
same,"IC50 (µg/mL), pseudovirus neutralization",[12],0.018 µg/mL
same,"IC50 (µg/mL), pseudovirus neutralization",[13],0.004 µg/mL
same,"IC50 (µg/mL), pseudovirus neutralization",[14],0.027 µg/mL
same,"IC50 (µg/mL), pseudovirus neutralization",[15],0.015 µg/mL
same,Fold IC50 increase relative to wild-type,[44],1.8 fold
same,"IC50 (µg/mL), pseudovirus neutralization",[16],8.69 µg/mL
same,"IC50 (µg/mL), neutralization of pseudovirus",[17],0.032 µg/mL
same,"IC50 (µg/mL), pseudovirus neutralization",[18],0.016 µg/mL
same,"IC50 (µg/mL), pseudovirus neutralization",[19],2.22 µg/mL
same,"IC50 (µg/mL), pseudovirus neutralization",[20],32.6 µg/mL
same,"IC50 (µg/mL), pseudovirus neutralization",[21],0.02 µg/mL
same,"IC50 (µg/mL), neutralization of pseudovirus",[22],0.005 µg/mL
same,"IC50 (µg/mL), neutralization of pseudovirus",[23],3.45 µg/mL
same,"IC50 (µg/mL), pseudovirus neutralization",[24],19.1 µg/mL
same,"IC50 (µg/mL), pseudovirus neutralization",[25],14 µg/mL
same,"IC50 (µg/mL), pseudovirus neutralization",[26],0.102 µg/mL
same,"IC50 (µg/mL), neutralization of pseudovirus",[27],0.016 µg/mL
same,"IC50 (µg/mL), pseudovirus neutralization",[28],3.35 µg/mL
same,"IC50 (µg/mL), pseudovirus neutralization",[29],> 50 µg/mL
same,"IC50 (µg/mL), pseudovirus neutralization",[30],0.039 µg/mL
same,"IC50 (µg/mL), neutralization of pseudovirus",[31],> 50 µg/mL
same,"IC50 (µg/mL), pseudovirus neutralization",[32],> 50 µg/mL
same,"IC50 (µg/mL), pseudovirus neutralization",[33],0.012 µg/mL
same,"IC50 (µg/mL), neutralization of pseudovirus",[34],0.514 µg/mL
same,"IC50 (µg/mL), pseudovirus neutralization",[35],0.027 µg/mL
same,"IC50 (µg/mL), neutralization of pseudovirus",[36],0.079 µg/mL
same,"IC50 (µg/mL), neutralization of pseudovirus",[37],0.033 µg/mL
same,"IC50 (µg/mL), pseudovirus neutralization",[38],0.032 µg/mL
same,"IC50 (µg/mL), pseudovirus neutralization",[39],> 50 µg/mL
same,"IC50 (µg/mL), neutralization of pseudovirus",[40],0.008 µg/mL
same,"IC50 (µg/mL), neutralization of pseudovirus",[41],0.01 µg/mL
same,"IC50 (µg/mL), neutralization of pseudovirus",[42],31.3 µg/mL
